Results published in paper PMC3947485.

Biological target: TRAP1 from zebrafish (D. rerio), full-length mature protein (D. rerio)
Assay: crystal structure

stoichiometry N: 2
Substance: TRAP1 from zebrafish (D. rerio), full-length mature protein (natural protein)
